According to the supplement of paper PMC9170038:

system: K4 kissing-loop RNA reporter; test: apparent KD of K4 kissing-loop reporter; higher = weaker reporter binding; conditions: Eterna round: R107; input ligand: FMN 200 uM
Experimental: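 RNA-MaP round R107: designed RNA switches with theophylline, tryptophan, arginine or FMN aptamers are transcribed on-chip within common flanks. They are titrated with a labelled K4 kissing-loop RNA reporter in RNA-MaP buffer (100 mM Tris pH 7.5, 80 mM KCl, 4 mM MgCl2), without ligand or with the indicated ligand. Median apparent KD per design.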
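Note: bound reporter read as fluorescence of individual clusters on recovered sequencing chips by microscopy, with normalized cluster intensities fitted with a binding model.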

| Sequence | apparent KD of K4 kissing-loop reporter [nM] |
| --- | --- |
| UUUCGUUGAAGUGAUACCAGACUUGAAAGUGAUGUUUUCCAAUAAUUUAAAUUAUUAGCUGUCCCUUGGCAGCACAGUUUAUUUA [JR_ExcTheophyB_Sub007] | 255 |
| UGUAUGUGAUUUGAUACCAGACCAGCUGAUGGAUCACGAGUGAUGUUCGUGUUGGUUUGGGUCCCUUGGCAGCAAAUCGCAUACU [KL-SSTheoB14] | 308 |
| UGUGUUGUUUUGAUGUUUGGUGUUGCUUGGCAGGAUAUCGUAGAGGCGAGAAGGGCUUGUGAGCGGUAUGAGUGAUGUUUGUAGG [zwwrmullin] | 485 |
| AAAGCAGUAUACUGCAAGACCUAUACUGAUACCAGAGUCAAUUGACUCCCUUGGCAGCGGAUCGAGUGAUGUUCGUAAGGUCAAA [AK4.1 SS Theophylline A] | 498 |
| AGACCACAAAGUGGUCAGUGUUCGCUGCAGCGAGGACCGGUACGGCCGCCACUCGCGAGUGAUGUUCGCGAGAGCAGCGAACACA [Omei KL Tryp A Exc A v6] | 90.9 |
| CAUAUCAGAUAAGGAUAUAUGGCUCCUCGAGUCCAGUGAUGUUGGGCAACGUUUCAGUGGUGGAUUAUAGAAGGUAUUCACAGAC [theeternabot_sameState_KL_FMN_B_9] | 297 |
| UAGCGUCUGCGAGGAUAUCGGAUUAGAGUGAUGUUCUAAAGACGCCCAGUGAUGUUGGAUGCGAUACGAGAAGGCGCUGGGCGCG [Same State FMN B GF7] | 182 |
| GGUAGCAUGGCGGCCGCCACUGUCUAGUGAUGUUAGACCCGACGUGGAUUCAAGACAGUCGGAAACAGGACCGGGCCAUGCUACC | 390 |
| AAUUUAUUAACUGAUACCAGACUUAAUAAAUUUUAAAUCACUAGUGAUGUUAGUGAAUAUGUCCCUUGGCAGCAGUAUUUAUUAA [JR_SSTheophyB_Sub023] | 132 |
| GGAUAGGACAGAGGAUAUGGUAGUGAUGUUACCACGAGACAAAGUCUCGAAAAGCUACAAAGUAGCCCAGAAGGCUGUCCUAUCG [FmnBX 25 #SwitchBubble #StaticStem #Palindromic] | 402 |
| UUUCGGCCCAGUGAUGUUGGGUGGAGGCGGCGAGGACCGGUACGGCCGCCACUCGGCGCACUGGCGGAGUGAUGUUUCGUGUAUA [Same State Tryptophan A GF 14] | 697 |
| UGACUGGAUGGAAGGAGCGCUAAACUCCUAGUGAUGUUAGGGACACGAGACAAAGUCUCGAGGCAGGUAGGUCGCCAUCUAGUCU [FiskerMod 7 - Jieux - Same State - Arginine B] | 225 |
| AAUAAGGAGUGAUGUUCCAAGUGAUGUUAACGAGGACCGGUACGGCCGCCACUCGAUACGGCCGGAAAGUAAGAUAAACUAAAAU [Same State - Tryptophan A (Freestyle 2)] | 61 |
| UGCGCUGUGUCCUGAAAUGUCCUCCGGGAUACCAGAGUCUUUUUAUUCCCUUGGCAGCUUGAGUGAUGUUUGAUGCCGUUCUUGU [yvvymullin] | 668 |
| UGGGAUGGUUCGGCCGCCACUAUGGUGCAGUGAUGUUGCAUCGUAGUAAAUCAUUCCAUUUACCGUAGGACCGGGAACCUUACGC [Mavelege] | 108 |
| GGGUGGUAGGCGGCCGCCACUCUGAGCACCCACUGAGUGAUGUUCGUGGCGUAAGCCUGUUCAUAGAGGACCGGGUUUGUUGUUC [Exclusion Tryptophan B GF 16] | 507 |
| CGCAAGCAGCUAGUGAUGUUGGCCGCCUUGCGAGGACCGGUACGGCCGCCACUCGGAGGCGGCUACUGAUAAACCGUCUAACGGA [KL-XTryp-A10] | 87.5 |
| GGGAGUGAUGUUCCCACGUUGUCGGUCCUCCGAGGACCGGUACGGCCGCCACUCGCGACCCAGUGAUGUUGGGACUCACCGUACC [Exclusion Tryptophan A Gf 12] | 509 |
| UACGUAGAGCGAGGAUAUCCUUCCCACGUCGAAGUACCGUGCUUGAUGGAGUGAUGUUCGAUCAGAGGAGAAGGUGCGAAACGUC [Flavin Switch Lower Fold Energy] | 725 |
| AAUUCAGCUAGUGAUGUUAGCGUAGAGUGCAAGGAUAUCCCUGUCAGGAGAAGGUGCGUAGAACGUUUGCCAUCAGAUUGUCCCA [theeternabot_exclusion_KL_FMN_A_48] | 176 |
| GAUAUAGUGAUGUUAUAUACUGAUAGACAACGAGGACCGGUACGGCCGCCACUCGAGAGGGUGAAAUUAAUGAUAAAAUAAUAAU [ExyTryA#2] | 322 |
| GCAGUGAUGUUGCUGAUGUGCAGUGGUAGUCGAGGACCGGUACGGCCGCCACUCGGUGAGAAUUUGCUAAUACAUCGAUAAGUGA [XVII] | 1210 |

| Sequence | apparent KD of K4 kissing-loop reporter [nM] |
| --- | --- |
| CUCAGAAAGACUGUCCAAGUGAUGUUUGGACGAGGACCGGUACGGCCGCCACUCGCUGUUGCGAAUGUUAAGGUACGAGUCGCGG [theeternabot_exclusion_KL_Trp_A_30] | 84.8 |
| CUGACCAACAGCGAUACCAGCGUGGAGUGAUGUUCCCUGGUCCGGGCUGAUGUUCCCUUGCGCCCUUGGCAGCGCAGAAGCAGGA [Exclusion Theophylline B GF 12] | 296 |
| UUAGAGAUCUCAGGAUAUCAGUGAUGUUGGUGUAAAGAUCUGAGAUAGAAUUCUAUCUCAGAUCAAUGAGAAGGGAGAUCUCAUU [AK3.2 Exc FMN B] | 338 |
| AUGGUGGAUCAGUGAUGUUGGUGGAGUACGUAGGAUAUGAGUGAUGUUAGAAGGAUGGGAGUGAUGUUCCAGGUGGUUGUGUUGU [KL-SSFMN-A1] | 557 |
| GUUUCUUGGAAACAAGGACCGCUAACCGAAGGAGCGAGUGAAAACUCAGGUAGGUCGCGGUAGCGGAGUGAUGUUCCGCGUUUAC [Excluson Arginine A GF 15] | 91.3 |
| UCGGACCCUGGAGGAUAUGAGUCGAGUGAUGUUUGGCGGUCCAUGCCGGUGCGGCGUUAUGCCCUUUUAGAAGGCCAGGGUCCGA [#2 Exclusion - FMN B Attempt #13 (HarryS)] | 287 |
| UUCAGGUGUUCGGCCGCCACUCCAGUGAUGUUGGAGUGGCUUCACAAGGACCAGGACAAUGUAAGGAGGACCGGGAAUAUCGCAG [Leerat] | 143 |
| ACUGGAAUUGUACUCCAGUGAUGUUGGAGGCAGGAUAUCCAGUAAAGGAGAAGGGCCAUCGCGCUAUUUGGCCGCAGGCGGCCAG [Acela] | 147 |
| UUUGUAUCGGGAAGGAGCGUGAAUGAUAAUGGAUAUAGUGAUGUUAUAUAUAAGAACGAAUCGCAGGUAGGUCGCCCGGAUGACU [SSArgB.Q] | 431 |
| UUUGGUUUCUCGGCCGCCACUCGUUGGUUAUGGGCUUCAGGGAUAUAGUGAUGUUAUGUAUAGAAGAGGACCGGGAGAAGGUUUG [ExTryptoB.Dt] | 343 |
| GCCUGGGCACGAAGGAGCGCCGUGACAGGUUACUGCAUUGGGCAGUGAUGUUGCUCAAUCUGGCAGGUAGGUCGCGUGCCCAGGC | 106 |
| GGUGUUGUUUGUGCUGUUUUCUUUGUUUCUCGAGGACCGGUACGGCCGCCACUCGAGUGAUGUUUGGGUAGUGAUGUUUGUUAGU [Bdazzled #1 Exc. TA] | 241 |
| AGACUACCACACUGUCAAUAGACAGUGUACUAGGAUAUGCUGAUAAGCAGAAGGAGUGAUGUUCCUGGGUAGUCAAUAAAAUAAU [FmnAX 13 U28+G67] | 507 |
| CGGAUGUAGUGAUGUUAUAUUAGAUGUAGACGAGGACCGGUACGGCCGCCACUCGAAACGGCUACUAGCGCGUUGCGAGGUGUGC [ExTryptoA.CJ] | 737 |
| AGCGAUGUUUUCUCUAGGAGUGAUGUUUUUCGAGGACCGGUACGGCCGCCACUCGGACGACGAGUGUGGUAGUGGGCUGUUGACU [ffmullin] | 483 |
| UAGUCCUAGUGAUCGUUAUCAAGUGGUGGGCGAGGACCGGUACGGCCGCCACUCGACUAUGCAGUGAUGUUGCAAUCCGGACAAU [Exclusion - Tryptophan A (Freestyle 14)] | 209 |
| GCCUAGCAGGGAAGGAGCGGCAUAGGCAUAGAUAAUAUGCAGUUAGUGAUGUUAACACUAUGCCAGGUAGGUCGCCCUGCUAGGC [KL-SSArg B8] | 201 |
| CCAUCGCUAUUCGAUACCAGUCUUUUUUAUUUAUAAAAUCUGCAAAGGAGUGAUGUUCCAGACCCUUGGCAGCGAAUAGUGAUGG [Theophylline B K4 3] | 401 |
| AAAUAAUGCAGUCACCCAGUGAUGUUGGAAGGAGCGUGCGAAAGCACAGGUAGGUCGCCAAUAAUGAUAAAGUUCAGUGGCUUUA [JR_Nu_ExcArginiA_Sub030] | 766 |
| GCAUGCAUGGCAGGAUAUAAUCUGGAGUGAUGUUCCUUUAACCUUUCGAACGGCGAGCCAGGUUGAUUAGAAGGGCCAUGCAUGC | 435 |
| UAUCAGAUUACUGAUACCAGUCUAAAGACAGUGAUGUUGUCUGAUCGACCACGAUCCAAGGACCCUUGGCAGCAGUGUACUAUUC [#30 K4 Theophylline B Same State] | 177 |

same assay, conditions: Eterna round: R107; input ligand: arginine 13.2 mM

| Sequence | apparent KD of K4 kissing-loop reporter [nM] |
| --- | --- |
| UUUCGUUGAAGUGAUACCAGACUUGAAAGUGAUGUUUUCCAAUAAUUUAAAUUAUUAGCUGUCCCUUGGCAGCACAGUUUAUUUA [JR_ExcTheophyB_Sub007] | 371 |
| UGUAUGUGAUUUGAUACCAGACCAGCUGAUGGAUCACGAGUGAUGUUCGUGUUGGUUUGGGUCCCUUGGCAGCAAAUCGCAUACU [KL-SSTheoB14] | 282 |
| UGUGUUGUUUUGAUGUUUGGUGUUGCUUGGCAGGAUAUCGUAGAGGCGAGAAGGGCUUGUGAGCGGUAUGAGUGAUGUUUGUAGG [zwwrmullin] | 282 |
| AAAGCAGUAUACUGCAAGACCUAUACUGAUACCAGAGUCAAUUGACUCCCUUGGCAGCGGAUCGAGUGAUGUUCGUAAGGUCAAA [AK4.1 SS Theophylline A] | 555 |
| AGACCACAAAGUGGUCAGUGUUCGCUGCAGCGAGGACCGGUACGGCCGCCACUCGCGAGUGAUGUUCGCGAGAGCAGCGAACACA [Omei KL Tryp A Exc A v6] | 83.4 |
| CAUAUCAGAUAAGGAUAUAUGGCUCCUCGAGUCCAGUGAUGUUGGGCAACGUUUCAGUGGUGGAUUAUAGAAGGUAUUCACAGAC [theeternabot_sameState_KL_FMN_B_9] | 250 |
| UAGCGUCUGCGAGGAUAUCGGAUUAGAGUGAUGUUCUAAAGACGCCCAGUGAUGUUGGAUGCGAUACGAGAAGGCGCUGGGCGCG [Same State FMN B GF7] | 358 |
| GGUAGCAUGGCGGCCGCCACUGUCUAGUGAUGUUAGACCCGACGUGGAUUCAAGACAGUCGGAAACAGGACCGGGCCAUGCUACC | 229 |
| AAUUUAUUAACUGAUACCAGACUUAAUAAAUUUUAAAUCACUAGUGAUGUUAGUGAAUAUGUCCCUUGGCAGCAGUAUUUAUUAA [JR_SSTheophyB_Sub023] | 134 |
| GGAUAGGACAGAGGAUAUGGUAGUGAUGUUACCACGAGACAAAGUCUCGAAAAGCUACAAAGUAGCCCAGAAGGCUGUCCUAUCG [FmnBX 25 #SwitchBubble #StaticStem #Palindromic] | 116 |
